Assay results reported in PMC3903776, “Structural Characterization of the Mechanosensitive Channel Candidate MCA2 from Arabidopsis thaliana” (PLoS ONE, 2014).

Target: the molecule itself
Experiment: cross-linking; purified MCA2-6H in PBS with 4% APFO; 10 mM glutaraldehyde, room temperature, up to 30 min, stopped with 50 mM Tris-HCl pH 8.0; reducing SDS-PAGE, CBB staining

B1: MCA2-6H (Arabidopsis thaliana MCA2 with a 6xHis tag fused to the carboxyl terminus) (natural protein, UniProt Q3EBY6 1-416, looked up)
chain: MANSWDQLGEIASVAQLTGIDALKLIGMIVNAANTARMHKKNCRQFAHHLKLIRNLLEQIKNSEMNQRSEILEPLQGLDDALRRSYILVKSCQEKSYLYLLAMGWNIVNQFEKAQNEIDLFLKIVPLINMADNARIRERLEAIERDQREYTLDEEDRKVQDVILKQESTREAATSVLKKTLSRSYPNMGFCEALKTEEEKLQLELQRSRARYDADQCEVIQRLIDVTQTAATVEPNLEKVLTKKEELTSSKKRDDLYDTDSSSIRADSRSTSYVSSGHELLSGRSLQHRGNWHADLLDCCSEPCLCLKTLFFPCGTLAKISTVATSRQISSTEVCKNLIVYSLILSCCCYTCCIRKKLRKTLNITGGCIDDFLSHLMCCCCALVQELREVEIHRASYGTEKSNKEMSPPTPQFMEE
notes: MCA2 of Arabidopsis thaliana, 416 amino acid residues; source: Sf9 cells, baculovirus (Bac-to-Bac), membrane fraction solubilised in APFO, purified (His GraviTrap, Superdex 200 SEC); not shown: 6xHis, C-terminal, kept
  stoichiometry N: 4
